The experiment concerns the target ALPP/ALPPL2 on ALPP/ALPPL2 positive cancer cells. Kind of experiment: cell-based or functional assay.

B1: D10 F05-hFc (S239/442C T366Y/Y407T) [G4S]3 conjugated to MC-vc-PAB-MMAE (Fc fusion, DAR 3.9)
chain 1: QVQLVESGGGLVQPGGSLRLSCAASGSIFSVNTMGWYRQAPGKQRDLVAVATSGGTIHYADSVKGRFTISRDNAKNTVYLQMNSLKPEDTAVYYCNLVVPYGMIAGDHDYWGQGTKVTVSSGGGGSGGGGSGGGGSEPKSSDKTHTCPPCPAPELLGGPCVFLFPPKPKDTLMISRTPEVTCVVVDVSHEDPEVKFNWYVDGVEVHNAKTKPREEQYNSTYRVVSVLTVLHQDWLNGKEYKCKVSNKALPAPIEKTISKAKGQPREPQVYTLPPSRDELTKNQVSLYCLVKGFYPSDIAVEWESNGQPENNYKTTPPVLDSDGSFFLYSKLTVDKSRWQQGNVFSCSVMHEALHNHYTQKSLCLSPGK
chain 2: QVQLVESGGGLVQAGGSLRLSCAASGRAFGDYNIGWFRQAPGKEREFVARRTWDGSSTRYDDSVKGRFTVSIDNAKNTAYLQMNSLKTEDTAVYYCAAGRYSRVRGWEYDYWGQGTQVTVSSGGGGSGGGGSGGGGSEPKSSDKTHTCPPCPAPELLGGPCVFLFPPKPKDTLMISRTPEVTCVVVDVSHEDPEVKFNWYVDGVEVHNAKTKPREEQYNSTYRVVSVLTVLHQDWLNGKEYKCKVSNKALPAPIEKTISKAKGQPREPQVYTLPPSRDELTKNQVSLTCLVKGFYPSDIAVEWESNGQPENNYKTTPPVLDSDGSFFLTSKLTVDKSRWQQGNVFSCSVMHEALHNHYTQKSLCLSPGK
modifications: here or on the partner: MC-vc-PAB-MMAE on Cys 239 and Cys 442 (S239C, S442C, EU numbering)
Take B1: the % viability remaining, MDA-MB-468 cells is 17%; the % viability remaining, MKN-1 cells came out at 13%; the % viability remaining, NCI-H1651 cells was found to be 22%; the % viability remaining, NCI-N87 cells turned out to be 37%. This molecule also returned an IC50 at 96 h (nM), cell-killing of MDA-MB-468 cells (Cell Titre Glo) of 0.96 nM; an IC50 at 96 h (nM), cell-killing of MKN-1 cells (Cell Titre Glo) of 0.12 nM; an IC50 at 96 h (nM), cell-killing of NCI-H1651 cells (Cell Titre Glo) of 0.74 nM; an IC50 at 96 h (nM), cell-killing of NCI-N87 cells (Cell Titre Glo) of 1.8 nM.

B2: A06 F05-hFc (S239/442C T366Y/Y407T) [G4S]3 conjugated to MC-vc-PAB-MMAE (Fc fusion, DAR 4.0)
chain 1: QVHLVESGGGLVQAGGSLRLSCAASGRTFLSMGWFRQAPGKEREFVAAISWTGGSTGYADSVKGRFTISRESDKETMYLQMNSLKPEDTAVYYCAARGDVYYGGDDATRYKYWGQGTQVTVSSGGGGSGGGGSGGGGSEPKSSDKTHTCPPCPAPELLGGPCVFLFPPKPKDTLMISRTPEVTCVVVDVSHEDPEVKFNWYVDGVEVHNAKTKPREEQYNSTYRVVSVLTVLHQDWLNGKEYKCKVSNKALPAPIEKTISKAKGQPREPQVYTLPPSRDELTKNQVSLYCLVKGFYPSDIAVEWESNGQPENNYKTTPPVLDSDGSFFLYSKLTVDKSRWQQGNVFSCSVMHEALHNHYTQKSLCLSPGK
chain 2: QVQLVESGGGLVQAGGSLRLSCAASGRAFGDYNIGWFRQAPGKEREFVARRTWDGSSTRYDDSVKGRFTVSIDNAKNTAYLQMNSLKTEDTAVYYCAAGRYSRVRGWEYDYWGQGTQVTVSSGGGGSGGGGSGGGGSEPKSSDKTHTCPPCPAPELLGGPCVFLFPPKPKDTLMISRTPEVTCVVVDVSHEDPEVKFNWYVDGVEVHNAKTKPREEQYNSTYRVVSVLTVLHQDWLNGKEYKCKVSNKALPAPIEKTISKAKGQPREPQVYTLPPSRDELTKNQVSLTCLVKGFYPSDIAVEWESNGQPENNYKTTPPVLDSDGSFFLTSKLTVDKSRWQQGNVFSCSVMHEALHNHYTQKSLCLSPGK
modifications: here or on the partner: MC-vc-PAB-MMAE on Cys 239 and Cys 442 (S239C, S442C, EU numbering)
Turning to B2, the % viability remaining, MDA-MB-468 cells is 17%; the % viability remaining, MKN-1 cells turned out to be 16%; the % viability remaining, NCI-H1651 cells amounted to 22%; the % viability remaining, NCI-N87 cells was determined as 36%. The half-inhibitory concentration (IC50) at 96 h (nM), cell-killing of MDA-MB-468 cells (Cell Titre Glo) came to 12 nM; the IC50 at 96 h (nM), cell-killing of MKN-1 cells (Cell Titre Glo) was found to be 0.26 nM; the IC50 at 96 h (nM), cell-killing of NCI-H1651 cells (Cell Titre Glo) was 0.47 nM; the half-maximal inhibitory concentration (IC50) at 96 h (nM), cell-killing of NCI-N87 cells (Cell Titre Glo) was 7.9 nM.

B3: D10 F05-hFc (S239/442C T366Y/Y407T) [G4S]1 conjugated to MC-vc-PAB-MMAE (Fc fusion, DAR 4.0)
chain 1: QVQLVESGGGLVQPGGSLRLSCAASGSIFSVNTMGWYRQAPGKQRDLVAVATSGGTIHYADSVKGRFTISRDNAKNTVYLQMNSLKPEDTAVYYCNLVVPYGMIAGDHDYWGQGTKVTVSSGGGGSEPKSSDKTHTCPPCPAPELLGGPCVFLFPPKPKDTLMISRTPEVTCVVVDVSHEDPEVKFNWYVDGVEVHNAKTKPREEQYNSTYRVVSVLTVLHQDWLNGKEYKCKVSNKALPAPIEKTISKAKGQPREPQVYTLPPSRDELTKNQVSLYCLVKGFYPSDIAVEWESNGQPENNYKTTPPVLDSDGSFFLYSKLTVDKSRWQQGNVFSCSVMHEALHNHYTQKSLCLSPGK
chain 2: QVQLVESGGGLVQAGGSLRLSCAASGRAFGDYNIGWFRQAPGKEREFVARRTWDGSSTRYDDSVKGRFTVSIDNAKNTAYLQMNSLKTEDTAVYYCAAGRYSRVRGWEYDYWGQGTQVTVSSGGGGSEPKSSDKTHTCPPCPAPELLGGPCVFLFPPKPKDTLMISRTPEVTCVVVDVSHEDPEVKFNWYVDGVEVHNAKTKPREEQYNSTYRVVSVLTVLHQDWLNGKEYKCKVSNKALPAPIEKTISKAKGQPREPQVYTLPPSRDELTKNQVSLTCLVKGFYPSDIAVEWESNGQPENNYKTTPPVLDSDGSFFLTSKLTVDKSRWQQGNVFSCSVMHEALHNHYTQKSLCLSPGK
modifications: here or on the partner: MC-vc-PAB-MMAE on Cys 239 and Cys 442 (S239C, S442C, EU numbering)
Molecule B3 yielded a % viability remaining, MDA-MB-468 cells of 17%; a % viability remaining, MKN-1 cells of 16%; a % viability remaining, NCI-H1651 cells of 22%; a % viability remaining, NCI-N87 cells of 35%. This molecule also yielded an IC50 at 96 h (nM), cell-killing of MDA-MB-468 cells (Cell Titre Glo) of 2.36 nM; an IC50 at 96 h (nM), cell-killing of MKN-1 cells (Cell Titre Glo) of 0.14 nM; a half-inhibitory concentration (IC50) at 96 h (nM), cell-killing of NCI-H1651 cells (Cell Titre Glo) of 0.85 nM; an IC50 at 96 h (nM), cell-killing of NCI-N87 cells (Cell Titre Glo) of 2 nM.

One may read the IC50 as the point on the concentration scale where inhibition reaches its midpoint. Low values mean greater potency, high ones weaker potency.

For the origin of these results see patent US20260216242A1, “ALPP-SPECIFIC VARIANT ANTIGEN BINDING MOLECULES” (ALMAC DISCOVERY LIMITED, priority 2022, published 2026).
